Test results as given in patent US20160347807A1, “TARGETING P53 AND ITS DNA-BINDING DOMAIN” (UNIVERSITY OF UTAH RESEARCH DOUNDATION, priority 2014, published 2016).
Entries after “also recorded” stand apart in the source; their conditions may differ.

How the values were obtained:
Assay type in all cases: cell-based, human
HeLa cells = experiment: 7-AAD assay in HeLa cells; conditions: 24 h after transfection
Method: (§1) Transfected T47D, MCF-7, MDA-MB-231, HeLa and H1373 cells were pelleted and resuspended in 500 μL PBS (Invitrogen) containing 1 μM 7-aminoactinomycin D (7-AAD) (Invitrogen) for 30 min prior to analysis following the recommended protocol from the manufacturer. The assay was performed 48 h after transfection for T47D, MCF-7 and H1373 and 24 h after transfection for MDA-MB-231 and HeLa. Only EGFP positive cells were analyzed by using the FACS Canto-II (BD-BioSciences) with FACS Diva software. EGFP and 7-AAD were excited with the 488 nm laser, and were detected at 507 nm and 660 nm, respectively. Independent transfections of each construct were tested three times (n=3).
(§2) Transfected T47D, H1373, SKOV-3 and HeLa cells were pelleted and re-suspended in 500 μL PBS (Invitrogen) containing 1 μM 7-aminoactinomycin D (7-AAD) (Invitrogen) for 30 min prior to analysis. T47D and H1373 cells were analyzed 48 h after transfection, while SKOV-3 and HeLa cells were analyzed 24 h after transfection (time points optimized empirically). Only EGFP positive cells were assayed using the FACS Canto-II (BD-BioSciences) with FACS Diva software as previously. EGFP and 7-AAD were excited at 488 nm, and detected at 507 nm and 660 nm, respectively. Independent transfections of each construct were assayed three times (n=3). The highest value (EGFP positive cells stained with 7-AAD) was set at 100%, and the lowest at 0% (relative 7-AAD) as previously.

H1373 cells = experiment: 7-AAD assay in H1373 cells; conditions: H1373 (p53 null), 48 h after transfection
Method: as §1, §2

T47D cells [1] = experiment: 7-AAD assay in T47D cells; conditions: 48 h after transfection, EGFP positive cells only
Method: as §1, §2

SKOV-3 cells = experiment: 7-AAD assay in SKOV-3 cells
Method: as §2

T47D cells [2] = experiment: Rescue experiment using BFP-Bcl-XL (7-AAD) in T47D cells; conditions: 48 h after transfection, Bcl-XL overexpression
Method: T47D cells were co-transfected with 1 pmol of EGFP constructs and 1 pmol of BFP-Bcl-XL (BFP tag is necessary for gating Bcl-XL transfected cells). 48 h after transfection the 7-AAD assay was performed as described above. FACSCanto-II (BD-BioSciences) and FACSDiva software were used for EGFP and BFP gating. Excitation was set at 488 nm, and detected at 507 nm and 660 nm for EGFP and 7-AAD, respectively. BFP was excited at 405 nm and detected at 457 nm. Independent transfections of each construct were tested three times (n=3).

T47D cells [3] = experiment: TUNEL assay in T47D cells; conditions: 48 h after transfection
Method: T47D cells were harvested 48 h after transfection. In situ Death Detection Kit, TMR red (Roche, Mannheim, Germany) was used following manufacturer's recommendations as before. Cells were resuspended in PBS (Invitrogen) and analyzed via the FACSAria-II (BD-Biosciences, University of Utah Core Facility). EGFP and TMR red were excited at 488 nm and 563 nm, respectively, and FACSDiva software was used to analyze the data. Independent transfections of each construct were tested three times (n=3).

T47D cells [4] = experiment: Annexin V assay in T47D cells; conditions: 48 h after transfection
Method: 48 h after transfection, T47D cells were pelleted and resuspended in 400 μL of annexin-V binding buffer (Invitrogen) and incubated with 5 μL of annexin-APC (annexin-V conjugated to allophycocyanin, Invitrogen) for 15 min as before. Only transfected cells were analyzed as mentioned in 7-AAD assay. EGFP and APC were excited at 488 nm and 635 nm wavelengths, respectively and detected at their corresponding 507 nm and 660 nm wavelengths. Independent transfections of each construct were tested three times (n=3).

DBD-BakMTS: DBD of p53 cloned between EGFP and Bak MTS
7-AAD positive cells (late apoptosis) (HeLa cells): significant from their corresponding negative controls; also recorded: trend of higher apoptotic activity in HeLa cells compared to p53-BakMTS; also recorded: induces robust apoptosis, similar to, or greater than wt p53 with MTS; also recorded: outperformed DBD-BaxMTS; also recorded: induces apoptosis in all 3 cell lines | 7-AAD positive cells (late apoptosis) (H1373 cells): statistically higher from their negative control E-BakMTS; also recorded: significantly higher activities compared to their positive controls; also recorded: induces robust apoptosis, similar to, or greater than wt p53 with MTS; also recorded: outperformed DBD-BaxMTS; also recorded: induces apoptosis in all 3 cell lines | 7-AAD positive cells (late apoptosis) (T47D cells [1]): significantly higher apoptosis compared to cells transfected with MTS negative controls; also recorded: trending higher; also recorded: induces robust apoptosis, similar to, or greater than wt p53 with MTS; also recorded: outperformed DBD-BaxMTS; also recorded: induces apoptosis in all 3 cell lines | 7-AAD positive cells (late apoptosis) (SKOV-3 cells; SKOV-3 (p53 null), 24 h after transfection): significantly higher than their negative control E-BakMTS; also recorded: trending higher; also recorded: induces late stage apoptosis | apoptosis in SKOV-3 (assay not stated at place) (SKOV-3 cells; ovarian cancer cells SKOV-3): triggers apoptosis

p53m6-BakMTS: p53-BakMTS with K120A, R248A, R273A, R280A, E285A, E287A mutations
7-AAD positive cells (late apoptosis) (T47D cells [1]): not significantly different from their negative control; also recorded: complete loss in apoptotic activity compared to their non-mutated controls

p53ΔC-XL: EGFP, p53ΔC (amino acids 1-322, lacks the C-terminus) and XL MTS
7-AAD positive cells (late apoptosis) (T47D cells [1]): statistically higher than the negative control E-XL; also recorded: not statistically significant from each other

DBDK120E-BakMTS: DBD-BakMTS with K120E mutation
7-AAD positive cells (late apoptosis) (T47D cells [1]): not statistically significant from the negative control E-BakMTS

p53K120E-BakMTS: p53-BakMTS with K120E mutation
7-AAD positive cells (late apoptosis) (T47D cells [1]): not statistically significant from the negative control E-BakMTS

B1: PRD-XL: EGFP, proline-rich domain of p53, XL MTS (protein)
chain: APRMPEAAPPVAPAPAAPTPAAPAPAPSWPLSSSVRKGQERFNRWFLTGMTVAGVVLLGSLFSRK
modifications: left off: large carriers
notes: EGFP, proline-rich domain of p53, XL MTS
7-AAD positive cells (late apoptosis) (HeLa cells): statistically significant from p53-XL | apoptotic activity (7-AAD) on cotransfection of BFP-Bcl-XL (rescue) (T47D cells [2]): not altered by Bcl-XL overexpression | TUNEL positive cells (DNA fragmentation) (T47D cells [3]): not statistically different from the negative control; also recorded: statistically significantly lower than p53-XL | Annexin V positive cells (apoptotic potential) (T47D cells [4]): not statistically significant from the negative control | 7-AAD positive cells (late apoptosis) (T47D cells [1]): not statistically significant from the negative control E-XL indicating no apoptotic activity; also recorded: statistically significantly lower than p53-XL

B2: TD-XL: EGFP, tetramerization domain of p53, XL MTS (protein)
chain: LDGEYFTLQIRGRERFEMFRELNEALELKDAQAGRKGQERFNRWFLTGMTVAGVVLLGSLFSRK
modifications: left off: large carriers
notes: EGFP, tetramerization domain of p53, XL MTS
apoptotic activity (7-AAD) on cotransfection of BFP-Bcl-XL (rescue) (T47D cells [2]): reduction in apoptotic potential | TUNEL positive cells (DNA fragmentation) (T47D cells [3]): not statistically different from the negative control; also recorded: statistically significantly lower than p53-XL | Annexin V positive cells (apoptotic potential) (T47D cells [4]): not statistically significant from the negative control | 7-AAD positive cells (late apoptosis) (T47D cells [1]): statistically different from the negative controls but is also significantly lower than p53-XL

B3: DBDm6-BakMTS: DBD-BakMTS with K120A, R248A, R273A, R280A, E285A, E287A mutations (protein)
chain: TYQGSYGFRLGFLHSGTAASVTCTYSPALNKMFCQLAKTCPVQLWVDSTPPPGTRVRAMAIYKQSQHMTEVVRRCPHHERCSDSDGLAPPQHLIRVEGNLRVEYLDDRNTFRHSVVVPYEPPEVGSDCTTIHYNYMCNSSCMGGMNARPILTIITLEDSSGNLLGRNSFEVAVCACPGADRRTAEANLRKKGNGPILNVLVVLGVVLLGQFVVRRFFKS
modifications: left off: large carriers
notes: DBD-BakMTS with K120A, R248A, R273A, R280A, E285A, E287A mutations
7-AAD positive cells (late apoptosis) (T47D cells [1]): not significantly different from their negative control; also recorded: complete loss in apoptotic activity compared to their non-mutated controls
